Experimental data taken from publication PMC9482650, “Quantitative fragmentomics allow affinity mapping of interactomes” (Nature Communications, 2022).
Blank lines part the entries; values can stand above or below the binder they belong to.

Assays:
Assay in all cases: holdup assay
Set-up in all cases: key: below the threshold = too weak to quantify, mostly under pKd 3.1 to 4
AHNAK1, Q09666 = molecular target: AHNAK1, Q09666
APBA2_1, Q99767 = molecular target: T1, APBA2_1, Q99767
T1 sequence (Q99767 563-664, limits assumed, looked up): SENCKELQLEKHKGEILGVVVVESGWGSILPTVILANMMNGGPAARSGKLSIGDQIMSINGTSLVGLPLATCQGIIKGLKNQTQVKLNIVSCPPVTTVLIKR

DFNB31_3, Q9P202 = molecular target: T2, DFNB31_3, Q9P202
T2 sequence (Q9P202 811-907, limits assumed, looked up): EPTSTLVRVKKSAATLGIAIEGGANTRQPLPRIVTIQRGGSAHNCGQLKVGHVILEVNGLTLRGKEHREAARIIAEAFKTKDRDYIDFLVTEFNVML

DLG1_2, Q12959 = molecular target: DLG1_2, Q12959
Chain of DLG1_2, Q12959 (Q12959 314-412): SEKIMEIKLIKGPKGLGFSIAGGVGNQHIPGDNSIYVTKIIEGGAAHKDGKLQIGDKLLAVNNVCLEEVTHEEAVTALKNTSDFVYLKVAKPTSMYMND

DLG1_3, Q12959 = molecular target: DLG1_3, Q12959
Chain of DLG1_3, Q12959 (Q12959 457-571): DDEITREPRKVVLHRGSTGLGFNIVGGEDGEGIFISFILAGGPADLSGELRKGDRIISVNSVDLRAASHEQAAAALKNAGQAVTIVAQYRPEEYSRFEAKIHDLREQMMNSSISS

DLG3_1, Q92796 = molecular target: T3, DLG3_1, Q92796
T3 sequence (Q92796 125-227, limits assumed, looked up): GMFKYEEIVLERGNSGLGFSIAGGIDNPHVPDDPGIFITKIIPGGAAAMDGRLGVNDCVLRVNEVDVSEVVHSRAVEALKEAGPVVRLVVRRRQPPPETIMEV

GORASP1, Q9BQQ3 = molecular target: GORASP1, Q9BQQ3
Chain of GORASP1, Q9BQQ3 (Q9BQQ3 1-208): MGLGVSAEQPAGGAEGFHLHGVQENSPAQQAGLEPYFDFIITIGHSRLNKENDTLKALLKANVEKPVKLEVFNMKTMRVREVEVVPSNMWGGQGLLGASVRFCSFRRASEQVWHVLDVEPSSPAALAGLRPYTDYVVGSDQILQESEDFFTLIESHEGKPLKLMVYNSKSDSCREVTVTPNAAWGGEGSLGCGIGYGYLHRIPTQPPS

HTRA3, P83110 = molecular target: T4, HTRA3, P83110
T4 sequence (P83110 354-453, limits assumed, looked up): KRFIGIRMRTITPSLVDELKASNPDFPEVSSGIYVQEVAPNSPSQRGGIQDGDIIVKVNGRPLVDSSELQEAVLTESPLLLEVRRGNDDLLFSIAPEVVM

Inadl_2, Q8NI35 = molecular target: Inadl_2, Q8NI35
Chain of Inadl_2, Q8NI35 (Q8NI35 238-335): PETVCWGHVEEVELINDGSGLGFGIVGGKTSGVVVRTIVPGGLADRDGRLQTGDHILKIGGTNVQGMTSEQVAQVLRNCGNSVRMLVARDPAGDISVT

Inadl_9, Q8NI35 = molecular target: Inadl_9, Q8NI35
Chain of Inadl_9, Q8NI35 (Q8NI35 1530-1615): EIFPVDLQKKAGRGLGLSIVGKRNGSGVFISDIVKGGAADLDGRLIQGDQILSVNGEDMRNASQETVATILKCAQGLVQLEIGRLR

LDB3, O75112 = molecular target: LDB3, O75112
Chain of LDB3, O75112 (O75112 1-94): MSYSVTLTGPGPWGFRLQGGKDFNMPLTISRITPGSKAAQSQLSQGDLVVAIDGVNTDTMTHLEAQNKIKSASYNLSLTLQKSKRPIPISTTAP

LNX1_2, Q8TBB1 = molecular target: LNX1_2, Q8TBB1
Chain of LNX1_2, Q8TBB1 (Q8TBB1 371-470): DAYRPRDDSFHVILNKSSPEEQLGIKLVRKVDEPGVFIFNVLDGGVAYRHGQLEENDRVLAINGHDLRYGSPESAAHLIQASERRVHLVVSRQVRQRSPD

LNX2_2, Q8N448 = molecular target: T5, LNX2_2, Q8N448
T5 sequence (Q8N448 334-432, limits assumed, looked up): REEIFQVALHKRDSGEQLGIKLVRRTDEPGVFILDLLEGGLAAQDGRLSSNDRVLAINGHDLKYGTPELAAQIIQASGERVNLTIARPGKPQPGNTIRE

MAGI1_2, Q96QZ7 = molecular target: MAGI1_2, Q96QZ7
Chain of MAGI1_2, Q96QZ7 (Q96QZ7 456-580): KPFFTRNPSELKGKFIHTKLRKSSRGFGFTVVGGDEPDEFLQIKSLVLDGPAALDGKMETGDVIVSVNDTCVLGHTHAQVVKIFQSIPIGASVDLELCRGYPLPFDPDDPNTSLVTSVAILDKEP

MPDZ_10, O75970 = molecular target: T6, MPDZ_10, O75970
T6 sequence (O75970 1624-1722, limits assumed, looked up): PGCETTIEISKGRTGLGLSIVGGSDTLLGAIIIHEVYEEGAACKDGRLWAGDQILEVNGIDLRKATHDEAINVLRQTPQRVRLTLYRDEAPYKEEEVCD

MPP6, Q9NZW5 = molecular target: T7, MPP6, Q9NZW5
T7 sequence (Q9NZW5 125-219, limits assumed, looked up): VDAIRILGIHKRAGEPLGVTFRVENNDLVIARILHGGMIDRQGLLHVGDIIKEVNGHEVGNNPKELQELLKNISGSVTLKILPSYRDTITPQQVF

NHERF3_1, Q5T2W1 = molecular target: T8, NHERF3_1, Q5T2W1
T8 sequence (Q5T2W1 4-100, limits assumed, looked up): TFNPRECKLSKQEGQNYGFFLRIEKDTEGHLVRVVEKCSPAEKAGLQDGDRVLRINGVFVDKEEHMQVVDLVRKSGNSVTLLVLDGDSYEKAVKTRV

NHERF3_3, Q5T2W1 = molecular target: T9, NHERF3_3, Q5T2W1
T9 sequence (Q5T2W1 238-333, limits assumed, looked up): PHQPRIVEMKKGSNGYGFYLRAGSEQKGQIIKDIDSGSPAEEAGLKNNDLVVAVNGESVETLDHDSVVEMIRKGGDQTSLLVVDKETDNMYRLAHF

NHERF4_1, Q86UT5-2 = molecular target: NHERF4_1, Q86UT5-2
Chain of NHERF4_1, Q86UT5-2 (Q86UT5 other isoform, or with tags, fused parts or gaps): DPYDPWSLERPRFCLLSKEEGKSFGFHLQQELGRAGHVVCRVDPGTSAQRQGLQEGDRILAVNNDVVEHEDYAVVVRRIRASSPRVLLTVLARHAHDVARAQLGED

NOS1, P29475 = molecular target: NOS1, P29475
Chain of NOS1, P29475 (P29475 9-101): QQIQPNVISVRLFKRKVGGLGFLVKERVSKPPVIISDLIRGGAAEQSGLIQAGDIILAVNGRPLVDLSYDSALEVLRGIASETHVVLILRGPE

PDLIM1, O00151 = molecular target: PDLIM1, O00151
Chain of PDLIM1, O00151 (O00151 1-87): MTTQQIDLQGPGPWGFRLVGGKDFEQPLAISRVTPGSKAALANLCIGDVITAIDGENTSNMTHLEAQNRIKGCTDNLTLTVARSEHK

PICK1, Q9NRD5 = molecular target: PICK1, Q9NRD5
Chain of PICK1, Q9NRD5 (Q9NRD5 17-115): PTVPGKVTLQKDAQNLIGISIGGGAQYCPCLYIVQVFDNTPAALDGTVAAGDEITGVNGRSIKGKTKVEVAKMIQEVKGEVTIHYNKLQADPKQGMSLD

RAPGEF6, Q8TEU7 = molecular target: T10, RAPGEF6, Q8TEU7
T10 sequence (Q8TEU7 525-625, limits assumed, looked up): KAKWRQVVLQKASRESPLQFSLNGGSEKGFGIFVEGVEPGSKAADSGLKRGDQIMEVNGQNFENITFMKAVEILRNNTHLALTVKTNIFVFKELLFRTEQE

SCRIB_3, Q14160 = molecular target: SCRIB_3, Q14160
Chain of SCRIB_3, Q14160 (Q14160 999-1103): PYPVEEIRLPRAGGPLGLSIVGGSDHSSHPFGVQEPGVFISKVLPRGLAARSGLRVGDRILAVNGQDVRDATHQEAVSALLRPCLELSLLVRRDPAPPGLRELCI

SNTA1, Q13424 = molecular target: T11, SNTA1, Q13424
T11 sequence (Q13424 82-180, limits assumed, looked up): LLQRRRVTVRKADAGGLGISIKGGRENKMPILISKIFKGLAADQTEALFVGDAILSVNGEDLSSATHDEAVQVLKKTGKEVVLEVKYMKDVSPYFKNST

TJP3_3, O95049 = molecular target: T12, TJP3_3, O95049
T12 sequence (O95049 375-456, limits assumed, looked up): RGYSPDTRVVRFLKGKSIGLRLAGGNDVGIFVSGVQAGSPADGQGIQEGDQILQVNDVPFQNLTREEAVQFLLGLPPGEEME

[1] = plain residues with an end cap or a label only (N-terminal biotin on a linker: ado-ado)
[2] = plain residues with an end cap or a label only (N-terminal biotin on a linker: ahx)

Chain of AHNAK1, Q09666 (Q09666 4-100): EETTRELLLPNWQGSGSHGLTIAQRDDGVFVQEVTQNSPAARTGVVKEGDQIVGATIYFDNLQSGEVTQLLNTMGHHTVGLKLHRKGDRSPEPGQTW

pKd (AHNAK1, Q09666; [1]): below the threshold
pKd (APBA2_1, Q99767; [1]): below the threshold
pKd (DFNB31_3, Q9P202; [1]): 3.6
pKd (DLG1_2, Q12959; [1]): below the threshold
pKd (DLG1_3, Q12959; [1]): below the threshold
pKd (DLG3_1, Q92796; [1]): below the threshold
pKd (GORASP1, Q9BQQ3; [1]): below the threshold
pKd (HTRA3, P83110; [1]): 5.79
pKd (Inadl_2, Q8NI35; [1]): below the threshold
pKd (Inadl_9, Q8NI35; [1]): below the threshold
pKd (LDB3, O75112; [1]): below the threshold
pKd (LNX1_2, Q8TBB1; [1]): below the threshold
pKd (LNX2_2, Q8N448; [1]): 4
pKd (MAGI1_2, Q96QZ7; [1]): below the threshold
pKd (MPDZ_10, O75970; [1]): below the threshold
pKd (MPP6, Q9NZW5; [1]): below the threshold
pKd (NHERF3_1, Q5T2W1; [1]): 3.95
pKd (NHERF3_3, Q5T2W1; [1]): below the threshold
pKd (NHERF4_1, Q86UT5-2; [1]): 4.01
pKd (NOS1, P29475; [1]): 3.48
pKd (PDLIM1, O00151; [1]): 3.68
pKd (PICK1, Q9NRD5; [1]): below the threshold
pKd (RAPGEF6, Q8TEU7; [1]): below the threshold
pKd (SCRIB_3, Q14160; [1]): 3.83
pKd (SNTA1, Q13424; [1]): below the threshold
pKd (TJP3_3, O95049; [1]): 4.39
Binder: PYSESDDDWC [CACNA1A, O00555]

pKd (AHNAK1, Q09666; [1]): below the threshold
pKd (APBA2_1, Q99767; [1]): below the threshold
pKd (DFNB31_3, Q9P202; [1]): 4.08
pKd (DLG1_2, Q12959; [1]): 4.09
pKd (DLG1_3, Q12959; [1]): below the threshold
pKd (DLG3_1, Q92796; [1]): below the threshold
pKd (GORASP1, Q9BQQ3; [1]): 4.06
pKd (HTRA3, P83110; [1]): below the threshold
pKd (Inadl_2, Q8NI35; [1]): below the threshold
pKd (Inadl_9, Q8NI35; [1]): below the threshold
pKd (LDB3, O75112; [1]): below the threshold
pKd (LNX1_2, Q8TBB1; [1]): below the threshold
pKd (LNX2_2, Q8N448; [1]): below the threshold
pKd (MAGI1_2, Q96QZ7; [1]): 4.85
pKd (MPDZ_10, O75970; [1]): below the threshold
pKd (MPP6, Q9NZW5; [1]): below the threshold
pKd (NHERF3_1, Q5T2W1; [1]): 4.94
pKd (NHERF3_3, Q5T2W1; [1]): 3.77
pKd (NHERF4_1, Q86UT5-2; [1]): 4.51
pKd (NOS1, P29475; [1]): 3.92
pKd (PDLIM1, O00151; [1]): below the threshold
pKd (PICK1, Q9NRD5; [1]): 3.99
pKd (RAPGEF6, Q8TEU7; [1]): below the threshold
pKd (SCRIB_3, Q14160; [1]): 4.07
pKd (SNTA1, Q13424; [1]): 3.58
pKd (TJP3_3, O95049; [1]): below the threshold
Binder: KKMLQRRTLL [OR8G1, Q15617]

pKd (AHNAK1, Q09666; [2]): below the threshold
pKd (APBA2_1, Q99767; [2]): below the threshold
pKd (DFNB31_3, Q9P202; [2]): below the threshold
pKd (DLG1_2, Q12959; [2]): 3.54
pKd (DLG1_3, Q12959; [2]): below the threshold
pKd (DLG3_1, Q92796; [2]): below the threshold
pKd (GORASP1, Q9BQQ3; [2]): below the threshold
pKd (HTRA3, P83110; [2]): below the threshold
pKd (Inadl_2, Q8NI35; [2]): below the threshold
pKd (Inadl_9, Q8NI35; [2]): below the threshold
pKd (LDB3, O75112; [2]): below the threshold
pKd (LNX1_2, Q8TBB1; [2]): below the threshold
pKd (LNX2_2, Q8N448; [2]): below the threshold
pKd (MAGI1_2, Q96QZ7; [2]): below the threshold
pKd (MPDZ_10, O75970; [2]): below the threshold
pKd (MPP6, Q9NZW5; [2]): below the threshold
pKd (NHERF3_1, Q5T2W1; [2]): 4.4
pKd (NHERF3_3, Q5T2W1; [2]): below the threshold
pKd (NHERF4_1, Q86UT5-2; [2]): 3.65
pKd (NOS1, P29475; [2]): below the threshold
pKd (PDLIM1, O00151; [2]): below the threshold
pKd (PICK1, Q9NRD5; [2]): below the threshold
pKd (RAPGEF6, Q8TEU7; [2]): below the threshold
pKd (SCRIB_3, Q14160; [2]): below the threshold
pKd (SNTA1, Q13424; [2]): below the threshold
pKd (TJP3_3, O95049; [2]): below the threshold
Binder: QNTDDVQTSF [ACE2, Q9BYF1]

pKd (AHNAK1, Q09666; [1]): below the threshold
pKd (APBA2_1, Q99767; [1]): below the threshold
pKd (DFNB31_3, Q9P202; [1]): 3.5
pKd (DLG1_2, Q12959; [1]): below the threshold
pKd (DLG1_3, Q12959; [1]): below the threshold
pKd (DLG3_1, Q92796; [1]): below the threshold
pKd (GORASP1, Q9BQQ3; [1]): below the threshold
pKd (HTRA3, P83110; [1]): below the threshold
pKd (Inadl_2, Q8NI35; [1]): below the threshold
pKd (Inadl_9, Q8NI35; [1]): below the threshold
pKd (LDB3, O75112; [1]): 5.2
pKd (LNX1_2, Q8TBB1; [1]): below the threshold
pKd (LNX2_2, Q8N448; [1]): below the threshold
pKd (MAGI1_2, Q96QZ7; [1]): below the threshold
pKd (MPDZ_10, O75970; [1]): below the threshold
pKd (MPP6, Q9NZW5; [1]): below the threshold
pKd (NHERF3_1, Q5T2W1; [1]): 4.44
pKd (NHERF3_3, Q5T2W1; [1]): below the threshold
pKd (NHERF4_1, Q86UT5-2; [1]): 4.41
pKd (NOS1, P29475; [1]): below the threshold
pKd (PDLIM1, O00151; [1]): 5.09
pKd (PICK1, Q9NRD5; [1]): below the threshold
pKd (RAPGEF6, Q8TEU7; [1]): 3.57
pKd (SCRIB_3, Q14160; [1]): below the threshold
pKd (SNTA1, Q13424; [1]): below the threshold
pKd (TJP3_3, O95049; [1]): below the threshold
Binder: QSGLYESEEL [MYOT, Q9UBF9]

pKd (AHNAK1, Q09666; [1]): below the threshold
pKd (APBA2_1, Q99767; [1]): below the threshold
pKd (DFNB31_3, Q9P202; [1]): 3.9
pKd (DLG1_2, Q12959; [1]): below the threshold
pKd (DLG1_3, Q12959; [1]): below the threshold
pKd (DLG3_1, Q92796; [1]): below the threshold
pKd (GORASP1, Q9BQQ3; [1]): 3.89
pKd (HTRA3, P83110; [1]): 3.6
pKd (Inadl_2, Q8NI35; [1]): below the threshold
pKd (Inadl_9, Q8NI35; [1]): below the threshold
pKd (LDB3, O75112; [1]): below the threshold
pKd (LNX1_2, Q8TBB1; [1]): below the threshold
pKd (LNX2_2, Q8N448; [1]): 3.83
pKd (MAGI1_2, Q96QZ7; [1]): below the threshold
pKd (MPDZ_10, O75970; [1]): below the threshold
pKd (MPP6, Q9NZW5; [1]): 3.54
pKd (NHERF3_1, Q5T2W1; [1]): below the threshold
pKd (NHERF3_3, Q5T2W1; [1]): below the threshold
pKd (NHERF4_1, Q86UT5-2; [1]): below the threshold
pKd (NOS1, P29475; [1]): below the threshold
pKd (PDLIM1, O00151; [1]): below the threshold
pKd (PICK1, Q9NRD5; [1]): below the threshold
pKd (RAPGEF6, Q8TEU7; [1]): below the threshold
pKd (SCRIB_3, Q14160; [1]): 4.29
pKd (SNTA1, Q13424; [1]): below the threshold
pKd (TJP3_3, O95049; [1]): below the threshold
Binder: LPAVCYDIDI [PTTG2, Q9NZH5]
